Measurements taken from patent US20220372549A1, “Thermally Responsive Conjugates” (MIP Diagnostic Limited, priority 2019, published 2022).

Assays:
pyrophosphatase (PPase) = conditions: cited from earlier work
[1] = tested on: UltraScript 2.0 Reverse Transcriptase; conditions: 150 ng conjugate, RTase 324 nM, 30 min at 25, 43, 55 and then 35° C.; loss of product peak
Protocol: The reaction was performed using the UltraScript 2.0 Reverse Transcriptase from PCR Bio (UK), according to the instructions of the manufacturer. General conditions were, for a 20 μl total reaction volume:
RNA=5 μg template plus random hexamer primers, in PCR Bio buffer mix.
Individual reaction vials were kept at the set temperature for 30 min and the reaction allowed to proceed. The temperatures used were 25° C., 43° C., 55° C. and 35° C., the latter being done after the 55° C. step. After each incubation, 1-2 μl of cDNA product was taken for qPCR amplification and quantification. Inhibition detected by observing loss of product peak.

Substance: pyrophosphatase [unconjugated free enzyme]
- optimum temperature (pyrophosphatase (PPase)): 45 °C

Substance: zidovudine-poly-N-isopropylmethacrylamide
- RTase inhibition, thermal reversibility [1]: inhibition was reversible
